Molecular target: 原核表达的重组人P53蛋白 (recombinant human P53 expressed in E. coli BL21 from PET28a-P53, Ni-NTA purified) (human) (UniProt P04637)
Experiment: direct ELISA, purified antibody diluted 1:200 to 1:12800 on plates coated with purified P53 (10 μg/ml), goat anti-mouse IgG-HRP, OD450

Chain of UniProt P04637 (P04637 whole entry): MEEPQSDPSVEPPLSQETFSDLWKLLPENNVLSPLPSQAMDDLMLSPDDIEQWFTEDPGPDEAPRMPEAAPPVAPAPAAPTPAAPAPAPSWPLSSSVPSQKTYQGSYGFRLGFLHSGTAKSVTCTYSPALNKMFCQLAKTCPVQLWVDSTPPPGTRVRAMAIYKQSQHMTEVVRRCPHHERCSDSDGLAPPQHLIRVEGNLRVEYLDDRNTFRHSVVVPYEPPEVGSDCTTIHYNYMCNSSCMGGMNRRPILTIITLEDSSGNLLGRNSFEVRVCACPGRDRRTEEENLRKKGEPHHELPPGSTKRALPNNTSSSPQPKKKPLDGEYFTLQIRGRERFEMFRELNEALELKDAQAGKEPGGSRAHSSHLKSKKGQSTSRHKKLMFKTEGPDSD

B1: 小鼠抗人P53单克隆抗体6C4 (mouse anti-human P53 monoclonal antibody from hybridoma 6C4, CGMCC No. 6916) (antibody, part only; not given: light chain variable region, V domains shown, part only)
VH: DFCWSLSGVGVGCHLVTNSGKGLEWLAHIWWDDDKSYNPALKSRLTISKDTSTNQVFLKIASVDTADTATYYCARMTTATFAYWGQGTLVTVSPASTTPPISQ
  ELISA titer (滴度) (dilution factor (1:x)): > 10000

Source: CN106754739A
